Results reported in US10227388B2, “Peptides and combination of peptides for use in immunotherapy against non-small cell lung cancer and other cancers” (immatics biotechnologies GmbH, priority 2015, dated 2019).

Target: HLA-A*02:01 (Homo sapiens, UniProt P04439, D140Y/D185E/D98H/E176V/E277Q/G131W/G231S/I119V/I121R/I166T/I218V/L300P/L318F/N151K/N90K/P208A/P217A/Q86G/Q94H/R138H/R169H/T345S)
Assay: MHC binding assay (UV-ligand exchange, ELISA, peptide exchange yield)
Conditions: binding of HLA-class I restricted peptides to HLA-A*02:01
In short: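 Exchange yield was quantified as stabilized β2m-containing complex: monomers diluted 100-fold bound to streptavidin-coated wells, probed with HRP-conjugated anti-β2m, read at 450 nm after TMB. Complexes had been generated by UV cleavage of a photolabile ligand and replacement with the candidate peptide.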

Substance	Peptide exchange (MHC class I binding score, peptide exchange yield)
119 (FLYIGDIVSL; listed as Homo sapiens) [compound 119]	″++++″ (≥75% = ++++)
457 (SLLPGNLVEKV; listed as Homo sapiens) [compound 457]	″+++″ (≥50% = +++)
287 (FLNEFFLNV; listed as Homo sapiens) [compound 287]	″+++″ (≥50% = +++)
452 (ILLEHGADPNL; listed as Homo sapiens) [compound 452]	″+++″ (≥50% = +++)
448 (NLLETKLQL; listed as Homo sapiens) [compound 448]	″+++″ (≥50% = +++)
449 (KLAEGLDIQL; listed as Homo sapiens) [compound 449]	″+++″ (≥50% = +++)
393 (GLLDTQTSQVLTA; listed as Homo sapiens) [compound 393]	″++″ (≥20% = ++)
45 (SLWQDIPDV; listed as Homo sapiens) [compound 45]	″+++″ (≥50% = +++)
298 (VMITKLVEV; listed as Homo sapiens) [compound 298]	″+++″ (≥50% = +++)
342 (HIYDKVMTV; listed as Homo sapiens) [compound 342]	″+++″ (≥50% = +++)
557 (KLYDDMIRL; listed as Homo sapiens) [compound 557]	″+++″ (≥50% = +++)
313 (VLFDDELLMV; listed as Homo sapiens) [compound 313]	″+++″ (≥50% = +++)
148 (ALNPEIVSV; listed as Homo sapiens) [compound 148]	″++″ (≥20% = ++)
529 (LLADELITV; listed as Homo sapiens) [compound 529]	″+++″ (≥50% = +++)
496 (FLVEKQPPQV; listed as Homo sapiens) [compound 496]	″+++″ (≥50% = +++)
20 (RMIEYFIDV; listed as Homo sapiens) [compound 20]	″+++″ (≥50% = +++)
550 (FLYDEIEAEVNL; listed as Homo sapiens) [compound 550]	″+++″ (≥50% = +++)
528 (SVAEGRALMSV; listed as Homo sapiens) [compound 528]	″+++″ (≥50% = +++)
553 (SLLNQDLHWSL; listed as Homo sapiens) [compound 553]	″++++″ (≥75% = ++++)
461 (VMFRTPLASV; listed as Homo sapiens) [compound 461]	″++″ (≥20% = ++)
480 (ALLEDSCHYL; listed as Homo sapiens) [compound 480]	″+++″ (≥50% = +++)

Substance	Peptide exchange (MHC class I binding score, peptide exchange yield)
264 (SLQEQLHSV; listed as Homo sapiens) [compound 264]	″+++″ (≥50% = +++)
81 (FLFSQLQYL; listed as Homo sapiens) [compound 81]	″++″ (≥20% = ++)
284 (ILLSQTTGV; listed as Homo sapiens) [compound 284]	″+++″ (≥50% = +++)
446 (QLIPALAKV; listed as Homo sapiens) [compound 446]	″+++″ (≥50% = +++)
157 (SLNDEVPEV; listed as Homo sapiens) [compound 157]	″++″ (≥20% = ++)
176 (YLMEGSYNKVFL; listed as Homo sapiens) [compound 176]	″++″ (≥20% = ++)
539 (ALFDAQAQV; listed as Homo sapiens) [compound 539]	″+++″ (≥50% = +++)
431 (SLVNVVPKL; listed as Homo sapiens) [compound 431]	″++″ (≥20% = ++)
320 (KMFEFVEPLL; listed as Homo sapiens) [compound 320]	″++++″ (≥75% = ++++)
278 (QLLDVVLTI; listed as Homo sapiens) [compound 278]	″++″ (≥20% = ++)
237 (ALLEASGTLLL; listed as Homo sapiens) [compound 237]	″++++″ (≥75% = ++++)
465 (QLCDLNAEL; listed as Homo sapiens) [compound 465]	″+++″ (≥50% = +++)
242 (AIAYILQGV; listed as Homo sapiens) [compound 242]	″++″ (≥20% = ++)
90 (TLLQIIETV; listed as Homo sapiens) [compound 90]	″+++″ (≥50% = +++)
396 (ALLPDLPAL; listed as Homo sapiens) [compound 396]	″+++″ (≥50% = +++)
601 (SAFPFPVTV; listed as Homo sapiens) [compound 601]	″+++″ (≥50% = +++)
451 (LLLLDTVTMQV; listed as Homo sapiens) [compound 451]	″++″ (≥20% = ++)
306 (ALVNVQIPL; listed as Homo sapiens) [compound 306]	″+++″ (≥50% = +++)
270 (LLLDEEGTFSL; listed as Homo sapiens) [compound 270]	″++″ (≥20% = ++)
289 (VLLEIEDLQV; listed as Homo sapiens) [compound 289]	″++++″ (≥75% = ++++)
109 (IILSILEQA; listed as Homo sapiens) [compound 109]	″++++″ (≥75% = ++++)

Substance	Peptide exchange (MHC class I binding score, peptide exchange yield)
230 (ILVDWLVEV; listed as Homo sapiens) [compound 230]	″+″ (≥10% = +)
339 (GLWEIENNPTVKA; listed as Homo sapiens) [compound 339]	″++++″ (≥75% = ++++)
519 (GLLHLTLLL; listed as Homo sapiens) [compound 519]	″+++″ (≥50% = +++)
401 (ILLDDTGLAYI; listed as Homo sapiens) [compound 401]	″+++″ (≥50% = +++)
312 (IISDLTIAL; listed as Homo sapiens) [compound 312]	″+++″ (≥50% = +++)
316 (ILLERLWYV; listed as Homo sapiens) [compound 316]	″+++″ (≥50% = +++)
86 (NLIGKIENV; listed as Homo sapiens) [compound 86]	″+++″ (≥50% = +++)
558 (GLLENIPRV; listed as Homo sapiens) [compound 558]	″+++″ (≥50% = +++)
7 (SLVGLLLYL; listed as Homo sapiens) [compound 7]	″++++″ (≥75% = ++++)
588 (SLLPLSHLV; listed as Homo sapiens) [compound 588]	″+++″ (≥50% = +++)
9 (GAAKDLPGV; listed as Homo sapiens) [compound 9]	″++″ (≥20% = ++)
613 (RLLPPGAVVAV; listed as Homo sapiens) [compound 613]	″+++″ (≥50% = +++)
561 (YLQLTQSEL; listed as Homo sapiens) [compound 561]	″+++″ (≥50% = +++)
115 (AIAGAGILYGV; listed as Homo sapiens) [compound 115]	″++″ (≥20% = ++)
30 (LILDWVPYI; listed as Homo sapiens) [compound 30]	″+++″ (≥50% = +++)
17 (GLLPGDRLVSV; listed as Homo sapiens) [compound 17]	″+++″ (≥50% = +++)
67 (TLLAEALVTV; listed as Homo sapiens) [compound 67]	″+++″ (≥50% = +++)
348 (ILLDVKTRL; listed as Homo sapiens) [compound 348]	″++++″ (≥75% = ++++)
175 (YLFENISQL; listed as Homo sapiens) [compound 175]	″+++″ (≥50% = +++)
